T1: human TIM-3 expressed on cells (human, UniProt Q8TDQ0 22-301)
T1 construct: also called T cell immunoglobulin and mucin domain-3; HAVCR2
T1 sequence: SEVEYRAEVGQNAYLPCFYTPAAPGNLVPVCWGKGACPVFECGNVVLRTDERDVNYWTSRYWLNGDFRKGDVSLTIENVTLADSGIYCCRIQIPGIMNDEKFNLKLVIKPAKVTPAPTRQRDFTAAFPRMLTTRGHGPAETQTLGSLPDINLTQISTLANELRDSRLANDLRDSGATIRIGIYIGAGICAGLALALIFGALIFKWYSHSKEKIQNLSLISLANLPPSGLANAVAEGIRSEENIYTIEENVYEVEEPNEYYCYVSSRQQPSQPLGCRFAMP


What follows are binders tested against T1, human TIM-3 expressed on cells (assay: flow cytometry, anti-CD3/anti-CD28 activated primary human CD8+ T cells).
Method: Briefly, peripheral blood mononuclear cells (PBMCs) isolated via ficoll gradient from healthy donor buffy coats (Research Blood Components, LLC) were enriched for untouched pan-T cells using magnetic-based separation (Miltenyi Biotec). The enriched population of T lymphocytes was then activated with plate-bound anti-CD3 antibody (SP34, 3 μg/ml) and soluble anti-CD28 antibody (CD28.1, 2 μg/ml) for 3 days in RPMI media, supplemented with 10% heat-inactivated FBS, at 37° C. and 5% CO₂. Following activation, cells were incubated with human Fc-receptor block for 15 minutes at room temperature to reduce non-specific binding (FcR block, Biolegend). Anti-TIM-3 or IgG isotype control antibodies (12-point dose titration, 10,000 ng/ml to 0.06 ng/ml) were added to individual samples and incubated for 30 minutes at 4° C. Samples were washed two times and an antibody cocktail, containing FITC-conjugated anti-kappa antibody as well as anti-CD3 (BV711, OKT3), anti-CD4 (BV605, OKT4) and anti-CD8a (PE, RPA-T8, all at 2.5 μg/ml, was diluted in buffer (PBS, 2 mM EDTA, 0.5% BSA, pH 7.2), added to each sample and incubated for 30 minutes at 4° C. Samples were washed two times and analyzed using the LSRFortessa flow cytometer (BD Biosciences). Flow cytometry plots were analyzed using a combination of FACS DIVA and WEHI Weasel software.

Row | binding result | Binder
1 | binds | pab2191 (IgG1 variant) (antibody, V domains shown) VH: not shown VL: EIVLTQSPGTLSLSPGERATLSCRASQSVSSYLAWYQQKPGQAPRLLIYDASNRATGIPARFSGSGSGTDFTLTISRLEPEDFAVYYCQQYGSSPLTFGGGTKVEIK
2 | binds | pab2189 (IgG1 variant) (antibody, V domains shown) VH: not shown VL: EIVLTQSPATLSLSPGERATLSCRASQSVSSYLAWYQQKPGQAPRLLIYDASNRATGIPARFSGSGSGTDFTLTISRLEPEDFAVYYCQQYGSSPLTFGGGTKVEIK
3 | binds | pab2190 (IgG1 variant) (antibody, V domains shown) VH: not shown VL: EIVLTQSPGTLSLSPGERATLSCRASQSVSSYLAWYQQKPGQAPRLLIYDASSRATGIPDRFSGSGSGTDFTLTISRLEPEDFAVYYCQQYGSSPLTFGGGTKVEIK
4 | binds | pab2184 (IgG1 variant) (antibody, V domains shown) VH: not shown VL: EIVLTQSPGTLSLSPGERATLSCRASQSVSSYLAWYQQKPGQAPRLLIYGASSRATGIPARFSGSGSGTDFTLTISRLEPEDFAVYYCQQYGSSPITFGGGTKVEIK
5 | binds | pab2192 (IgG1 variant) (antibody, V domains shown) VH: not shown VL: EIVLTQSPGTLSLSPGERATLSCRASQSVSSYLAWYQQKPGQAPRLLIYGASSRATGIPARFSGSGSGTDFTLTISRLEPEDFAVYYCQQYGSSPITFGGGTKVEIK
6 | binds | pab2186 (IgG1 variant) (antibody, V domains shown) VH: not shown VL: EIVLTQSPATLSLSPGERATLSCRASQSVSSYLAWYQQKPGQAPRLLIYDASNRATGIPARFSGSGSGTDFTLTISSLEPEDFAVYYCQQYGSSPLTFGGGTKVEIK

What follows are binders tested against T1, human TIM-3 expressed on cells (assay: flow cytometry, Jurkat cells ectopically expressing human TIM-3).

Row | binding result | Binder
7 | binds | AM-3 (IgG1 N297A) (antibody, V domains shown) VH: EVQLVESGGGLVQPGGSLRLSCAASGFTFMSGQTSWVRRAPGKGLEWVSAISGSGGSTYYADSVKGRFTISRDNSKNTLYLQMNSLRAEDTAVYYCAKGGDYGGNYFDYWGQGTLVTVSS VL: EIVLTQSPATLSLSPGERATLSCRASQSVSSYLAWYQQKPGQAPRLLIYDASNRATGIPASFSGSGSGTDFTLTISRLEPEDFAVYYCQQYGSSPLTFGGGTKVEIKR

These binders were tested against T1, human TIM-3 expressed on cells (assay: flow cytometry, 1624-5 cells expressing human TIM-3).

Row | Binder | binding result
8 | pab2174 (IgG1) (antibody, V domains shown) VH: not shown VL: EIVLTQSPATLSLSPGERATLSCRASQSVSSYLAWYQQKPGQAPRLLIYDASNRATGIPARFSGSGSGTDFTLTISRLEPEDFAVYYCQQYGSSPLTFGGGTKVEIK | binds
9 | pab2191 (IgG1) (antibody, V domains shown) VH: not shown VL: EIVLTQSPGTLSLSPGERATLSCRASQSVSSYLAWYQQKPGQAPRLLIYDASNRATGIPARFSGSGSGTDFTLTISRLEPEDFAVYYCQQYGSSPLTFGGGTKVEIK | binds
10 | pab2177 (IgG1) (antibody, V domains shown) VH: not shown VL: EIVLTQSPGTLSLSPGERATLSCRASQSVSSYLAWYQQKPGQAPRLLIYDASNRATGIPARFSGSGSGTDFTLTISRLEPEDFAVYYCQQYGSSPLTFGGGTKVEIK | binds
11 | pab2182 (IgG1) (antibody, V domains shown) VH: not shown VL: EIVLTQSPGTLSLSPGERATLSCRASQSVSSYLAWYQQKPGQAPRLLIYGASSRATGIPARFSGSGSGTDFTLTISRLEPEDFAVYYCQQYGSSPITFGGGTKVEIK | binds
12 | pab2175 (IgG1) (antibody, V domains shown) VH: not shown VL: EIVLTQSPATLSLSPGERATLSCRASQSVSSYLAWYQQKPGQAPRLLIYDASNRATGIPASFSGSGSGTDFTLTISRLEPEDFAVYYCQQYGSSPLTFGGGTKVEIK | binds
13 | pab2183 (IgG1) (antibody, V domains shown) VH: not shown VL: EIVLTQSPATLSLSPGERATLSCRASQSVSSYLAWYQQKPGQAPRLLIYGASTRATGIPARFSGSGSGTDFTLTISRLEPEDFAVYYCQQYGSSPLTFGGGTKVEIK | binds
14 | pab2186 (IgG1) (antibody, V domains shown) VH: not shown VL: EIVLTQSPATLSLSPGERATLSCRASQSVSSYLAWYQQKPGQAPRLLIYDASNRATGIPARFSGSGSGTDFTLTISSLEPEDFAVYYCQQYGSSPLTFGGGTKVEIK | binds
15 | pab2189 (IgG1) (antibody, V domains shown) VH: not shown VL: EIVLTQSPATLSLSPGERATLSCRASQSVSSYLAWYQQKPGQAPRLLIYDASNRATGIPARFSGSGSGTDFTLTISRLEPEDFAVYYCQQYGSSPLTFGGGTKVEIK | binds

More lines, now with the values ahead:

Row | binding result | Binder
16 | binds | pab2179 (IgG1) (antibody, V domains shown) VH: not shown VL: EIVLTQSPGTLSLSPGERATLSCRASQSVSSYLAWYQQKPGQAPRLLIYDASSRATGIPDRFSGSGSGTDFTLTISRLEPEDFAVYYCQQYGSSPLTFGGGTKVEIK
17 | binds | pab2192 (IgG1) (antibody, V domains shown) VH: not shown VL: EIVLTQSPGTLSLSPGERATLSCRASQSVSSYLAWYQQKPGQAPRLLIYGASSRATGIPARFSGSGSGTDFTLTISRLEPEDFAVYYCQQYGSSPITFGGGTKVEIK
18 | binds | pab2188 (IgG1) (antibody, V domains shown) VH: not shown VL: EIVLTQSPATLSLSPGERATLSCRASQSVSSYLAWYQQKPGQAPRLLIYDASNRATGIPASFSGSGSGTDFTLTISRLEPEDFAVYYCQQYGSSPLTFGGGTKVEIK
19 | binds | pab2180 (IgG1) (antibody, V domains shown) VH: not shown VL: EIVLTQSPGTLSLSPGERATLSCRASQSVSSYLAWYQQKPGQAPRLLIYDASSRATGIPDRFSGSGSGTDFTLTISRLEPEDFAVYYCQQYGSSPLTFGGGTKVEIK
20 | binds | pab2176 (IgG1) (antibody, V domains shown) VH: not shown VL: EIVLTQSPGTLSLSPGERATLSCRASQSVSSYLAWYQQKPGQAPRLLIYDASNRATGIPARFSGSGSGTDFTLTISRLEPEDFAVYYCQQYGSSPLTFGGGTKVEIK
21 | binds | pab2178 (IgG1) (antibody, V domains shown) VH: not shown VL: EIVLTQSPATLSLSPGERATLSCRASQSVSSYLAWYQQKPGQAPRLLIYDASNRATGIPASFSGSGSGTDFTLTISRLEPEDFAVYYCQQYGSSPLTFGGGTKVEIK
22 | binds | pab2184 (IgG1) (antibody, V domains shown) VH: not shown VL: EIVLTQSPGTLSLSPGERATLSCRASQSVSSYLAWYQQKPGQAPRLLIYGASSRATGIPARFSGSGSGTDFTLTISRLEPEDFAVYYCQQYGSSPITFGGGTKVEIK
23 | binds | pab2190 (IgG1) (antibody, V domains shown) VH: not shown VL: EIVLTQSPGTLSLSPGERATLSCRASQSVSSYLAWYQQKPGQAPRLLIYDASSRATGIPDRFSGSGSGTDFTLTISRLEPEDFAVYYCQQYGSSPLTFGGGTKVEIK
24 | binds | pab2173 (IgG1) (antibody, V domains shown) VH: not shown VL: EIVLTQSPATLSLSPGERATLSCRASQSVSSYLAWYQQKPGQAPRLLIYDASNRATGIPARFSGSGSGTDFTLTISRLEPEDFAVYYCQQYGSSPLTFGGGTKVEIK

— patent US20170368168A1 (AGENUS, published 2017)
